Molecular target: dsRBD1 of human TAR RNA Binding Protein (TRBP2) (human)
Assay: SEC-MALS

population of tetramer relative to monomer: 0.25
stoichiometry N: 4
Substance: dsRBD1 of human TAR RNA Binding Protein (TRBP2) (domain or fragment)
